In paper PMC10620092, “Structure and electromechanical coupling of a voltage-gated Na^+/H^+ exchanger” (Nature, 2023):

Target: the molecule itself
Test: cryo-EM structure; 3 mg/ml SLC9C1 in GDN detergent (50 mM Tris-HCl pH 7.5, 150 mM NaCl, 0.02% GDN); C2 symmetry, symmetry expansion and masked refinement for the VSDs

B1: Strongylocentrotus purpuratus (sea urchin) SLC9C1, full length, GFP-TwinStrep tag removed by TEV (natural protein, UniProt A3RL54 30-1325, looked up)
chain: SSGGSGHTPTTQATHADDHDLTTHNGTEEHDDGHDDGHDDLHAHAPKVIVFISGSCLFGAISRSLFKKLPIPYTVVLLILGAILGVVASNVPLVEEHTRDVAHMDPHVLLQIFLPVLIFESAFAMDVHTFMRSFSQVCILALFGLVVASVLTAVLAMNLFNYNWNFSEAMMFGAIMSATDPVAVVALLKDLGASKQLGTIIEGESLLNDGCAIVIFNVFMKMVFFPQLTSTVGQNVLYFLQVAVAGPLWGYAVAKVTVFFLSHIFNDALVEITITLAATYLTYYIGDIWLEVSGVLAVVVLGLIVNAEKTSISPEVEVFLHRFWEMLAYLANTLIFMMVGVVVTQKALVAVDKMDWFYLIILYLAITIIRGMVISLFSPILSRIGYGLTWRNAVIMTWGGLRGAVGLALALVVENLAGNDVIGSKFLFHTAGIVVLTLVINATTIQTLLRILGMSDISIPKRLAMAGAVRRIHEGQNRTLNMLKSDRFLADADWDIATAACEISDPYSALSDDENAPADELTLGERKSVCPGCKAMVPNEPSPREFADMMEEARLRMLKAEKISYWKQFEHGMLAREALRLLVQHAEVAADEKDQFILVDDLKKSWQIKGIYPWLKRKLEDLISEKKIAAIPMPKYKLGKLMYKICHHMAFEVTINIAIVLNIVPIIMEFVVQDKMASVSTMAAPGSTVSSEPSSLQKIEDALRISNYVFFVIYAIEAIVKILGLGRHYIVSHWNKFDAFILVVALVDIIIAETLLKGSITINLSSIKVVKLFRLLRGLRMLRLTKALIPKLILVVNGKINNQLSLGYDVGKGYIIGEEEVGKIIDRMVDNKKILRELKHISETGRLQVVKELGLLQREHPGIAVSVKTRQAIRTILNHSRETIHELQGAGLLDEMEAHKLELTVEIKMKRLMNAPSSIPPPPPENLLKNVSWLAGDMKLIDFIKARASLLHFDYGEVIVREGDESDGLFLIVSGLVKLYGKSAFLDHDNPPVTAGSEENEVFEDYLTVGNVIGEMGVLTKKPRNATVTCETTVQVYFITAEDMNIAIDTFTLYPSLEYRLWRVVAIRIATPLIMEQMAFQGWTQEKVKLHLERGYLVDLAESHFQFNIDATLEDVILINGTAYNAHTREEIRSPCLISRTVHKLTFQYTATEEPRLFVVRNAEYNGPILDGRLDVDSKRSLISITEISSNMCLKHAAELRQKNSKVMLSRKSSGAAAKEEEDCIPNTSDVEQAAGVSPSVPTKTTPKPKSFLPSLGLSMSKERVNGEAVEESPVKTKQGEETPETEEGAAPRVNV
notes: synthesised gene in pcDNA3.1(+); A TEV recognition site follows the protein; what is left of it after cleavage stays at the C terminus; also called sperm-specific Na+/H+ exchanger SLC9C1; SLC9C1(WT); source: for one sample further reconstituted into MSP1E2 nanodiscs with yeast polar lipids; not shown: eGFP, C-terminal, cleaved; TwinStrep, C-terminal, cleaved; His8, C-terminal, cleaved
stoichiometry N: 2
